Experimental data reported in the supplement of paper PMC10126150.
± gives the standard deviation of the averaged measurements.

System: ATP
Test: switch fluorescence ratio, 500 uM ATP over buffer (Cy3 cluster intensity, sum of 5 cycles each) (fold (ratio)); higher = stronger signal-on switching upon ATP binding; sequences stand for … in TCGTCGGCAGCGTCAGATGTGTATAAGAGACAGTTTTTTTTTTTTTTTTTTTTTTTTT…TC
Settings: aptamer strand: ATP DNA aptamer (quencher-CACCTGGGGGAGTATTGCGGAGGAAGG + anchor), 100 nM annealed; ATP concentration: 500 uM
How it was run: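 Per cluster, summed Cy3 intensity from the target cycles was divided by that from the buffer cycles to give the fluorescence ratio, then averaged per switch-domain sequence. Clusters outside 100-1000 RFU were excluded. The Cy3-labelled switching-strand clusters, on a modified Illumina MiSeq flow-cell, were annealed to 100 nM quencher-labelled ATP aptamer and imaged in selection buffer, then after 15 min with 500 uM ATP at 22 °C, for five cycles with NaOH stripping and re-annealing between them.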
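Note: ATP exposure 15 min at 22 °C before imaging.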

Point of comparison: TGAAAAAGAT, switch fluorescence ratio 0.989 ± 0.028. Against it:
- CGGGTTTGGA — within error, 0.998 ± 0.035
- ATCGGTAACT — within error, 1.01 ± 0.032
- GGGAAATATT — within error, 1.06 ± 0.14
- AGAAAAGAGT — within error, 1.01 ± 0.017
- AGCCATTTTG — within error, 1.02 ± 0.022
- GACTAATTAA — within error, 0.978 ± 0.036
- GTTTTTGCTG — within error, 0.976 ± 0.024
- CCTGAAGGCA — within error, 1 ± 0.011
- AAGGGGGTAA — within error, 0.977 ± 0.012
- GGGAAGGTTT — within error, 1.01 ± 0.012
- TCTTTGTCTA — within error, 0.972 ± 0.02
- ATCTGGGTAG — within error, 1.01 ± 0.03
- GATTCTTGAG — within error, 1.01 ± 0.032
- GGGGGGGCGT — within error, 0.996 ± 0.032
- TATAAGAGCC — within error, 0.984 ± 0.043
- TAAATAGGGC — within error, 1.02 ± 0.045
- GCGCGAAGGA — within error, 1.03 ± 0.053
- CCAGTGTAGA — within error, 1.01 ± 0.0052
- ATTGTATAAA — within error, 1.04 ± 0.056
- TTATTGATGG — within error, 0.99 ± 0.019
- ATCCTCTTGC — higher, 1.09 ± 0.036
- CGTTCGGAGG — within error, 0.991 ± 0.037
- TTTGAGTGTG — within error, 0.997 ± 0.03
- AATGCTTCTC — higher, 1.03
- TAATAGAAGT — within error, 0.979 ± 0.052
- ACAGCGCAAT — higher, 2.12 ± 0.94
- TTAAGCCTGG — within error, 0.962 ± 0.022
- TTAAGGGCTC — within error, 1 ± 0.013
- TTGGCTTTGG — within error, 0.967 ± 0.0056
- TGCCTGTGCG — within error, 1.04 ± 0.031
- TGGTTTTTTA — within error, 0.993 ± 0.025
- TGTGGTGGC — within error, 0.995 ± 0.019
- GGCGTACTTG — within error, 1.01 ± 0.012
- GCAGCCAAGC — higher, 1.14 ± 0.028
- GTGGGGAGCT — within error, 1.03 ± 0.061
- ATTGATTTAT — within error, 0.987 ± 0.045
- ACCTGCTTTT — within error, 1.05 ± 0.051
- TGAGGGGGAG — within error, 1.01 ± 0.04
- GCGGGGGCGC — within error, 0.985 ± 0.016
- AAAATGCGGT — within error, 0.996 ± 0.015
- GACGACTCGG — within error, 0.987 ± 0.026
- GCGCCCAACT — within error, 1.03 ± 0.035
- ATAATTTTGG — within error, 0.973 ± 0.017
- GAGGAGCGGT — within error, 1 ± 0.017
- TGGGGCTATA — within error, 0.995 ± 0.037
- GGTCTAAGTA — within error, 1.08 ± 0.084
- ACGAAATGAC — higher, 1.68 ± 0.037
- TATGCGTTGC — within error, 1.02 ± 0.023
- TCCAAGACGG — within error, 1.02 ± 0.046
- GGGCGGATGG — within error, 0.986 ± 0.018
- TGCGGGTTTC — higher, 1.04 ± 0.017
- TGACCCTATA — higher, 1.06 ± 0.028
- TGGATAGGGG — higher, 1.03 ± 0.012
- AGTATTTGGT — within error, 1 ± 0.025
- GGTTGGGACT — within error, 0.994 ± 0.028
- TGGGTACGCA — within error, 1.03 ± 0.027
- ACAGTTGCTC — within error, 1.02 ± 0.02
- CGATGGTGAG — within error, 1 ± 0.047
- CGCTTATCCT — higher, 1.1 ± 0.038
- GGGCGAAATG — higher, 1.32 ± 0.28
- AGCCGGATCA — within error, 0.9931 ± 0.0056
- TTGAGTATTT — within error, 0.98182 ± 0.00089
- GATGGGGGGG — within error, 1 ± 0.028
- TGGGAGGGTT — within error, 1.12 ± 0.25
- AAAGCGGGTC — higher, 1.04 ± 0.015
- TTCGGACCCG — within error, 0.976 ± 0.01
- TCCGCTTGTA — higher, 1.39 ± 0.11
- ATGCAATGGC — higher, 1.437 ± 0.012
- TCGCTTAATT — within error, 1.02 ± 0.032
- CCGATTATTT — within error, 0.997 ± 0.015
- TTTGTGTTTA — within error, 0.9791 ± 0.0042
- GGAGTCTGGG — within error, 0.981 ± 0.021
- CGATGTGCTT — within error, 1.01 ± 0.024
- CGGTTCCCTA — within error, 0.978 ± 0.033
- GGTTGACCTG — within error, 1 ± 0.032
- ATGAAATGTT — within error, 1.011 ± 0.0053
- TTGTTGTTCC — higher, 1.08 ± 0.063
- TCAAAAATAT — within error, 0.987 ± 0.025
- ATGTCCACTT — within error, 1 ± 0.036
- TTTGGTTGTA — within error, 0.965 ± 0.014
- TGCATGTATT — within error, 1.012 ± 0.0039
- AGAGGGCAGG — within error, 0.995 ± 0.018
- GGGAAAGGGT — within error, 1 ± 0.014
- TTTTTTTTGC — within error, 1.02 ± 0.092
- ATGATTTTGT — within error, 1.013 ± 0.01
- CTTCAGGGAA — within error, 1.01 ± 0.032
- GATGCTTCTT — within error, 0.985 ± 0.019
- AAATTAAGGA — within error, 1.01 ± 0.031
- CGGATGAGTG — within error, 0.953 ± 0.1
- ATTTACTTGT — within error, 1.05 ± 0.094
- ACAGCGGGA — higher, 1.0254 ± 4.6e-06
- ATAAGGTCTA — within error, 0.971 ± 0.015
- TGAAAAGGGC — within error, 0.9875 ± 0.0095
- GTGGTTGGGA — within error, 0.992 ± 0.029
- AATATGATTC — within error, 0.992 ± 0.025
- ATTACTAGGA — within error, 1 ± 0.057
- ATGGTTAGAT — within error, 1.01 ± 0.017
- TGTCAGTGCG — within error, 0.97 ± 0.042
- GCTGTAGGGC — within error, 1.015 ± 0.0034
- TAACATGTGG — within error, 1.017 ± 0.01
- GATGCATGGC — higher, 1.12 ± 0.035
- CTTACAGGTT — within error, 0.99 ± 0.036
- TGTGTACAGG — within error, 0.978 ± 0.017
- GACGGATACA — higher, 1.38 ± 0.091
- CGAGGGGAGT — within error, 1.006 ± 0.0011
- TACCTATGTT — within error, 0.979 ± 0.011
- GTGGTCGAGT — the same, 0.989 ± 0.01
- AGTGGGGGGT — within error, 0.991 ± 0.03
- CGGATATTGC — within error, 1 ± 0.059
- GGTCTGTTGT — within error, 0.99 ± 0.049
- TGCTTTGGTT — within error, 1.01 ± 0.055
- ATTGTGCTGT — within error, 0.976 ± 0.043
- CCATCGGACA — within error, 1.016 ± 0.0064
- TATGGTTTAG — within error, 1.02 ± 0.015
- GGGTGGATGT — within error, 1.01 ± 0.012
- ATTGAGCGTG — within error, 1.01 ± 0.015
- TGAAATGAAT — within error, 0.994 ± 0.02
- AGAGTCGCGG — within error, 1 ± 0.015
- GAAAAGGGGG — within error, 0.992 ± 0.053
- TTGGGTAAGG — within error, 0.993 ± 0.029
- AAAGGTTAGG — within error, 0.958 ± 0.029
- CATTCCGTTC — higher, 1.42 ± 0.017
- ACCCTGGTAT — within error, 1.02 ± 0.017
- AACGTTGTAC — higher, 1.51 ± 0.037
- GGGGGGATCT — within error, 1.004 ± 0.0098
- TTGATCTTAG — within error, 1.02 ± 0.018
- GTGTGTTCGC — within error, 0.9546 ± 0.0069
- CCTATAGTAC — higher, 1.69 ± 0.05
- CTTTGTCAGT — within error, 0.979 ± 0.03
- CGCGGACGGT — within error, 1.05 ± 0.052
- TGTTATTCAT — within error, 0.985 ± 0.041
- ATGGGGTCCA — within error, 0.976 ± 0.042
- TAATAGGTTC — within error, 0.972 ± 0.024
- ACTTAAATTA — within error, 1.03 ± 0.036
- ATATATGCTC — within error, 1.01 ± 0.016
- AGTTAGAAAT — within error, 1.02 ± 0.03
- CGATGTGTGT — within error, 0.991 ± 0.035
- AAGGCATGCA — within error, 1.01 ± 0.032
- CGACAAAAAT — within error, 1.89 ± 1
- AAGGTTGTTG — within error, 1 ± 0.012
- GTGTAATTTT — within error, 0.993 ± 0.032
- CGGGGGCGCT — within error, 1.02 ± 0.013
- TTTACTGCCT — higher, 1.06 ± 0.022
- ATTGAATTCT — within error, 1.02 ± 0.14
- AAGTGATTTG — within error, 1.01 ± 0.018
- AGTGAGTCTG — within error, 0.995 ± 0.053
- GAAATATGGC — higher, 1.15 ± 0.062
- TAGAGGGT — within error, 0.9989 ± 0.0016
- TTTATAGTTT — within error, 1.01 ± 0.026
- CACTGGGTGT — higher, 1.24 ± 0.021
- GGTTTTTAAT — within error, 0.985 ± 0.031
- ACATCCCGTT — within error, 1.05 ± 0.048
- GAGATCTTGG — within error, 0.9824 ± 0.0045
- GGGGCAACGT — within error, 0.983 ± 0.012
- GGACGGGGGT — within error, 1.01 ± 0.038
- CATGACCTTT — higher, 1.04 ± 0.016
- TTCTGGGTTT — within error, 1.01 ± 0.025
- TGCATTTAGG — within error, 1.02 ± 0.032
- ATAGGAGTGC — within error, 1.01 ± 0.023
- TATTTGTTGC — within error, 1.03 ± 0.041
- CCAAGCTTGT — within error, 1 ± 0.041
- TTTGTCAGTA — the same, 0.989 ± 0.018
- TTATTTCGGG — within error, 0.973 ± 0.013
- CCATTTTATT — within error, 0.988 ± 0.031
- TGTTACGTTT — within error, 0.992 ± 0.021
- AAGAAAGGTA — within error, 1.01 ± 0.025
- TCGAATAATT — within error, 1 ± 0.041
- GCCTTTGTAA — higher, 1.09 ± 0.056
- TATGTATCCG — within error, 1.03 ± 0.062
- ACCGTAAACG — within error, 0.999 ± 0.12
- CGGTACTTAT — within error, 0.983 ± 0.017
- TTCGGGTGGA — within error, 1.02 ± 0.046
- AGGGGTATGT — the same, 0.989 ± 0.023
- GTATGCTAGC — within error, 1.004 ± 0.0086
- TTTCGTGGTC — within error, 1.02 ± 0.015
- TCTGTAAGGC — higher, 1.39 ± 0.066
- GCTGGGGGAA — within error, 0.98 ± 0.019
- TCTATTGCTG — within error, 0.995 ± 0.02
- AAGCATCTTT — within error, 0.974 ± 0.013
- CGTTTAGTAG — higher, 1.03 ± 0.013
- TTTTCCAGGG — higher, 1.22 ± 0.18
- AGTGAGCTTG — within error, 0.9818 ± 0.0038
- GCTGGTTGAC — within error, 0.981 ± 0.017
- GTTTATTTCG — within error, 0.987 ± 0.059
- ATGAGACAGA — within error, 0.999 ± 0.049
- TCGTTTTTTA — within error, 1.22 ± 0.45
- AATGTTCTGG — within error, 0.99 ± 0.032
- ACTTGGGACT — within error, 1.04 ± 0.047
- TTATCAAAGG — within error, 0.986 ± 0.014
- TGACGTTATG — within error, 1 ± 0.053
- GCGCGGGGGA — within error, 1.02 ± 0.025
- ATCGAATAGG — within error, 0.9872 ± 0.0022
- TGGGTCCGTG — within error, 0.963 ± 0.033
- GGGTTCTTTG — within error, 1.03 ± 0.064
- TACAAGTAT — within error, 0.997 ± 0.028
- AGGGGGGTGG — within error, 0.994 ± 0.052
- GTCGTGGTTT — within error, 0.982 ± 0.037
- GGGGTTTACA — the same, 0.989 ± 0.026
- TTTTACTGTT — higher, 1.12 ± 0.096
